This is an account of results in patent publication US20030119023, “Nucleic acid binding polypeptides characterized by flexible linkers connected nucleic acid binding modules” (published 2003).

One series concerns the target GAC-F4-ZIF (artificial). The series is described as follows: EMSA; 11 bp gap spanned without significant loss. Conditions: label: 32P. (In general: A gel shift assay detects complexes by their altered migration in electrophoresis.)
Another series concerns the target 2x3F pep11-9 (artificial). The series is described as follows: in vitro fluorescence ELISA, values in figure only. The conditions noted are these: label: biotin. The procedure: (§1) Incubations are performed at room temperature for 40 minutes. Black streptavidin-coated wells are blocked with 4% marvel for 1 hour. Binding reactions are added to the streptavidin-coated wells and incubated for a further 40 minutes at room temperature. Wells are washed 5 times in 100 μl wash buffer (1×PBS (pH 7.0), […] ZnCl₂, 0.01 mg/ml BSA, and 0.5% Tween 20), and finally 50 μl QuantaBlu peroxidase substrate solution (Pierce) is added to detect bound HA-tagged zinc finger peptide. ELISA signals are read in a SPECTRAmax GeminiXS spectrophotometer (Molecular Devices) and analysed using SOFTmax Pro 3.1.2 (Molecular Devices).
(§2) To compare the specificity of the 2x3F pep11-9 and 3x2F pep11-9 peptides, samples from the same translation reaction are assayed against each of the binding sites above. The ELISA signals obtained from each assay are then normalised relative to the maximum signal obtained for that peptide. (In this way the absolute amount of either peptide produced by the in vitro transcription/translation system is insignificant).

The target of another series is 3x2F pep11-9 (artificial). The series is described as follows: in vitro fluorescence ELISA, values in figure only. Conditions: label: biotin. As to the method:
as §1, §2
On the technique in general: An ELISA detects its analyte on a solid surface through an enzyme-linked reagent.

Chain of GAC-F4-ZIF (artificial) (chain, as listed by the source): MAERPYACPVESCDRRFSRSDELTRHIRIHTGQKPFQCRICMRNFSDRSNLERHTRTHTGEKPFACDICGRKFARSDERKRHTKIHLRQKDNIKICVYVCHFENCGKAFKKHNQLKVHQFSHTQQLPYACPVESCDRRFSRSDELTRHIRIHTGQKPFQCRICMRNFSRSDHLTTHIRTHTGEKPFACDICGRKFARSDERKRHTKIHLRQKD
Chain of 3x2F pep11-9 (artificial) (chain, as listed by the source): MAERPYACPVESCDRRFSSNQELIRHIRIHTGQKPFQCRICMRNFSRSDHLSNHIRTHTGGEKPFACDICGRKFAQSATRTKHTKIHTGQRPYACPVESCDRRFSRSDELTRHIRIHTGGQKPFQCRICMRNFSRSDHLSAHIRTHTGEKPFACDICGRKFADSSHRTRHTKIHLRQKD
Chain of 2x3F pep11-9 (artificial) (chain, as listed by the source): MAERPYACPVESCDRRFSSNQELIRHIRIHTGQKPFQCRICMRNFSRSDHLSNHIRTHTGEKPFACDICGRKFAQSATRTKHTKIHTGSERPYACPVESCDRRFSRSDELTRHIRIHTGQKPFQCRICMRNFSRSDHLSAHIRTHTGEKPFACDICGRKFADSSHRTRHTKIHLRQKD

B1: bsF2 (dsDNA)
DNA 1: GCGTGGGCGGTTAGTACCTGGCGGACGCG
DNA 2: CGCGTCCGCCAGGTACTAACCGCCCACGC
In the case of B1, the binding result with GAC-F4-ZIF was “binds”.

B2: 11-9 (dsDNA)
DNA 1: GGCCAGGCGGCAGGGGTT
DNA 2: AACCCCTGCCGCCTGGCC
B2: the binding result in the series with 2x3F pep11-9 and with 3x2F pep11-9 was “binds” in each case.
